This note sets out measurements from paper PMC3128523.

Bounds are passed on as bounds.

The target in the assay is GST-tagged constitutively active Rab1A Q67L (Dictyostelium) (UniProt P34139). Briefly: pull-down.
Sequence of UniProt P34139 (P34139 whole entry Q67L): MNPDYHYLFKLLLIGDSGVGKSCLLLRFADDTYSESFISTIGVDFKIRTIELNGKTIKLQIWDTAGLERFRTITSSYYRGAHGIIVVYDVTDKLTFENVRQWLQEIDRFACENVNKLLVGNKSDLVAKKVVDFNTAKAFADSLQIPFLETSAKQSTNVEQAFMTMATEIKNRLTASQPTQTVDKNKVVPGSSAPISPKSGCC

T7-tagged Roco2 (wild type) (enzyme) showed a fold of Roco2 pulled down against wild-type Rab1A above 5 fold.
